One assay has as its target T1, CD3 (Homo sapiens (Human), UniProt P07766 23-126).
T1 construct: also called human CD3
Description: method not stated.

Assay [1] addresses T2, HLA-A2/WT1RMF complex on cells (human).
T2 construct: also called RMF peptide-pulsed T2 cells; SKM-1 cells
The experiment in a line: flow cytometry on peptide-pulsed T2 cells, anti-human IgG-Fc PE secondary, MFI. (A flow cytometer gives signals particle by particle.)
Description: (§1) We first measured the binding specificity on peptide-pulsed T2 cells by the IgG binders generated from phage display by flow cytometry. […] Cells were acquired on FACS LSR II (BD), and data are presented as mean fluorescence intensity (MFI) of PE in Graphpad Prism.

For assay [2], the target named is T3, HLA-A2/WT1VLD complex on VLD peptide-pulsed T2 cells (human). The assay is described as above.
Description: as §1
For assay [3], the target named is T4, HLA-A2/WT1RMF complex (soluble) (human).
T4 construct: also called HLA-A02/WT1RMF pMHC; HLA-A02/RMF pMHC
The experiment in a line: SPR, pMHC captured (anti-His), bivalent antibody in solution; apparent KD (avidity), average. Background: In SPR one partner is held on a chip, and binding of the other changes the refractive index at the surface.
Description: (§2) For determination of avidity and specificity of the HLA-A2/WT1×CD3 bispecific antibodies to HLA-A2/WT1RMF, SPR experiments were again performed at 25° C. on a Biacore T200 with HBS-EP as running buffer (0.01 M HEPES pH 7.4, 0.15 M NaCl, 0.005% Surfactant P20 (GE Healthcare)). […] The HLA-A2/WT1RMF or HLA-A2/WT1VLD was captured for 30 sec and 10 μl/min at 5 or 10 nM (for the bispecific antibody or IgG measurement, respectively). […] The dissociation phase was monitored for 240 sec and triggered by switching from the sample solution to HBS-EP. The chip surface was regenerated after every cycle using an injection of 10 mM glycine pH 2 for 60 sec. Bulk refractive index differences were corrected for by subtracting the response obtained on the reference flow cell (which contains the anti-His antibody, but without HLA-A2/WT1RMF captured on it). Even though it is a 2:1 interaction (analyte is bivalent) the affinity constants were derived from the kinetic rate constants by fitting to a 1:1 Langmuir binding using the BIAeval software (GE Healthcare).

Assay [4] has as its target T4, HLA-A2/WT1RMF complex (soluble). The experiment in a line: SPR, antibody captured (anti-human Fc), pMHC in solution; affinity.
Description: The bispecific constructs were captured for 30 s at 5 nM. […] The dissociation phase was monitored for 120 s and triggered by switching from the sample solution to HBS-EP. The chip surface was regenerated after every cycle using an injection of 3M MgCl₂ at 10 μl/min for 30 sec. Bulk refractive index differences were corrected for by subtracting the response obtained on the reference flow cell which contains the anti-human Fc antibody, but without bispecific construct captured on it. The affinity constants were derived from the kinetic rate constants by fitting to a 1:1 Langmuir binding using the BIAeval software (GE Healthcare).
Assay [5] shares this target. Description: SPR, pMHC captured (anti-His), bivalent antibody in solution; avidity, average.
Description: as §2
For assay [6], the target named is HLA-A2 on unpulsed T2 cells (human). The experiment in a line: flow cytometry on unpulsed T2 cells, anti-human IgG-Fc PE secondary, MFI.
The target of assay [7] is T5, HLA-A2/WT1VLD complex (soluble) (human).
T5 construct: also called HLA-A02/WT1VLD pMHC; HLA-A02/VLD pMHC
The experiment in a line: SPR, pMHC captured by anti-His.
Description: as §2

For assay [8], the target named is T2, HLA-A2/WT1RMF complex on cells. Description: flow cytometry on peptide-pulsed T2 cells, anti-human IgG-Fc PE secondary, MFI. The source holds these as a separate data set.
Description: as §1
Assay [9] concerns the target T3, HLA-A2/WT1VLD complex on VLD …. Described as above. The source holds these as a separate data set.
Description: as §1
Assay [10] has as its target T2, HLA-A2/WT1RMF complex on cells. The assay is described as above. This is another data set of the same source.
Description: as §1
For assay [11], the target named is T3, HLA-A2/WT1VLD complex on VLD …. The assay is described as above. The source holds these as a separate data set.
Description: as §1
For assay [12], the target named is HLA-A2 on unpulsed T2 cells (human). The experiment in a line: flow cytometry on unpulsed T2 cells, anti-human IgG-Fc PE secondary, MFI. The source holds these as a separate data set.
Description: (§3) Cells were acquired on FACS LSR II (BD), and data are presented as mean fluorescence intensity (MFI) of PE in Graphpad Prism.
Assay [13] has the same target. Described as above. The source holds these as a separate data set.
Description: as §3
For assay [14], the target named is T2, HLA-A2/WT1RMF complex on cells. Description: flow cytometry on peptide-pulsed T2 cells, anti-human IgG-Fc PE secondary, MFI. The source holds these as a separate data set.
Description: as §1
Assay [15] concerns the target T3, HLA-A2/WT1VLD complex on VLD …. Described as above. The source holds these as a separate data set.
Description: as §1
The target of assay [16] is T2, HLA-A2/WT1RMF complex on cells. The assay is described as above. The source holds these as a separate data set.
Description: as §1
The target in assay [17] is T3, HLA-A2/WT1VLD complex on VLD …. The description is as above. The source holds these as a separate data set.
Description: as §1
Assay [18] has as its target T2, HLA-A2/WT1RMF complex on cells. Described as above. This is another data set of the same source.
Description: as §1
The target in assay [19] is T3, HLA-A2/WT1VLD complex on VLD …. The description is as above. The source holds these as a separate data set.
Description: as §1
Assay [20] shares this target. The description is as above. This is another data set of the same source.
Description: as §1
The target of assay [21] is HLA-A2 with MED13L peptide … on peptide-pulsed T2 cells (human). The experiment in a line: flow cytometry on peptide-pulsed T2 cells, anti-human Fc secondary, MFI.
Description: as §1
The target of assay [22] is T2, HLA-A2/WT1RMF complex on cells. Described as above.
Description: as §1

Experimental findings from US20190248916A1 (Hoffmann-La Roche, published 2019) are described below.

One may read the EC50 (read off the curve) as the concentration giving half of the maximal effect. A high value points to weaker potency. What is called koff is a measure of how fast the partners let go of each other. A low value points to a long-lived complex. One may read the kon as a measure of how fast the partners come together. Low readings indicate slow association, high ones fast association.

Substitutions are numbered along the chain they refer to. Values joined by “and” are separate entries in the source; they are usually repeats but may differ in a detail not shown here. Equal values may be shown once. Read-outs that look alike come from different tables or passages of the source.

B1: CD3 binder V9 (antibody, V domains shown)
VH: EVQLVESGGGLVQPGGSLRLSCAASGYSFTGYTMNWVRQAPGKGLEWVALINPYKGVSTYNQKFKDRFTISVDKSKNTAYLQMNSLRAEDTAVYYCARSGYYGDSDWYFDVWGQGTLVTVSS
VL: DIQMTQSPSSLSASVGDRVTITCRASQDIRNYLNWYQQKPGKAPKLLIYYTSRLESGVPSRFSGSGSGTDYTLTISSLQPEDFATYYCQQGNTLPWTFGQGTKVEIK
Consider B1, for which the Kd with CD3 lay in the range of 35 to 50 nM.

B2: 11D06-huIgG1 (antibody, V domains shown)
VH: QVQLVQSGAEVKKPGSSVKVSCKASGGTFSSYAISWVRQAPGQGLEWMGGIIPIFGTANYAQKFQGRVTITADKSTSTAYMELSSLRSEDTAVYYCARSIELWWGGFDYWGQGTTVTVSS
VL: DIQMTQSPSTLSASVGDRVTITCRASQSISSWLAWYQQKPGKAPKLLIYDASSLESGVPSRFSGSGSGTEFTLTIGSLQPDDFATYYCQQYEDYTTFGQGTKVEIK
notes: also called 11D06-IgG; 11D06 IgG
Regarding B2, the concentration for a half-maximal effect (EC50 (read off the curve)) in assay [1] was approximately 0.06 µg/mL. The binding result in assay [2] is listed as “no binding (tested: 10 µg/ml)”; in assay [6], “no binding (tested: 10 µg/ml)”; in assay [7] it was “no binding (tested: 1.23 to 100 nM)”. In addition, the Kd in assay [3] is 0.61 nM; in [4], 35 nM and 34 nM. For the same molecule, the koff was 0.0378 s⁻¹ and 0.0357 s⁻¹ in [4]; 0.00181 s⁻¹ in assay [5]. Besides, the kon in [4] was 1.08e+06 M⁻¹ s⁻¹ and 1.04e+06 M⁻¹ s⁻¹; in assay [5], 2.97e+06 M⁻¹ s⁻¹.

B3: 11B09-IgG (antibody, V domains shown)
VH: B2 VH with S99V, I100P, E101G, L102R, W104Y, G106A, F107M
VL: DIQMTQSPSTLSASVGDRVTITCRASQSISSWLAWYQQKPGKAPKLLIYDASSLESGVPSRFSGSGSGTEFTLTISSLQPDDFATYYCQQEDDYPLTFGQGTKVEIK
As to B3, the binding result in assay [8] was “no binding (tested: 1 µg/ml)”. Moreover, in assay [9], the “EC50 (read off the curve)” value was approximately 0.02 µg/mL.

B4: 5E11-IgG (antibody, V domains shown)
VH: QVQLVQSGAEVKKPGSSVKVSCKASGGTFSSYAISWVRQAPGQGLEWMGGIIPIFGTANYAQKFQGRVTITADKSTSTAYMELSSLRSEDTAVYYCARSSYDLYSFDYWGQGTTVTVSS
VL: DIQMTQSPSTLSASVGDRVTITCRASQSISSWLAWYQQKPGKAPKLLIYDASSLESGVPSRFSGSGSGTEFTLTISSLQPDDFATYYCQQYSFPPMITFGQGTKVEIK
Consider B4, for which, in assay [10], the 50% effective concentration (EC50 (read off the curve)) is approximately 0.7 µg/mL. Moreover, the binding result in [11] and in assay [12] was “no binding (tested: 10 µg/ml)” in each case.

B5: 33H09-huIgG1 (antibody, V domains shown)
VH: B4 VH with S99G, Y104F, F106L
VL: B2 VL with G76S, E92Y, Y94G, T95I
notes: also called 33H09-IgG
With B5, the Kd was 0.75 nM in [3]; 70 nM and 69 nM in assay [4]. Further, the koff is 0.116 s⁻¹ and 0.124 s⁻¹ in assay [4]; 0.00357 s⁻¹ in assay [5]. Also, the association rate constant (kon) was 1.67e+06 M⁻¹ s⁻¹ and 1.8e+06 M⁻¹ s⁻¹ in assay [4]; 4.74e+06 M⁻¹ s⁻¹ in assay [5]. Also, the binding result in assay [13] is “no binding (tested: 1 µg/ml)”; in assay [7], “no binding (tested: 1.23 to 100 nM)”; in [15], “no binding (tested: 1 µg/ml)”. The “EC50 (read off the curve)” value in assay [14] is approximately 0.06 µg/mL.

B6: 5C01-IgG (antibody, V domains shown)
VH: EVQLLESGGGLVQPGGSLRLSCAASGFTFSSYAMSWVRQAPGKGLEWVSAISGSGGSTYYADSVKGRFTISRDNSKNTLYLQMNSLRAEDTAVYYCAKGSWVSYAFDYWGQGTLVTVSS
VL: B4 VL with F93I, P94W, P95F, M96P, I97Y
As for B6, the binding result in [16] is “no binding (tested: 1 µg/ml)”. Also, in [17], the “EC50 (read off the curve)” value is approximately 0.02 µg/mL.

B7: 13B04-IgG (antibody, V domains shown)
VH: EVQLLESGPGLVKPSETLSLTCTVSGGSISSYYWSWIRQPPGKGLEWIGYIYYSGSTNYNPSLKSRVTISVDTSKNQFSLKLSSVTAADTAVYYCARVSYNGLDYWGQGTLVTVSS
VL: B4 VL with S92N, F93M, P94W, P95N, M96P, I97V
For the molecule B7, in [18], the binding result is “no binding (tested: 1 µg/ml)”. In assay [19], the “EC50 (read off the curve)” value was approximately 0.06 µg/mL.

B8: 11G06-huIgG1 (antibody, V domains shown)
VH: B4 VH with S99T, S100G, Y101P, D102Y, L103Y, Y104G, S105A
VL: B2 VL with G76S, Y91G, E92F, D93R, Y94G, T95Y
notes: also called 11G06-IgG
For B8, the binding result in assay [20] was “binds”.

B9: ESK1-TCB (bispecific antibody, V domains shown)
VH 1: QMQLVQSGAEVKEPGESLRISCKGSGYSFTNFWISWVRQMPGKGLEWMGRVDPGYSYSTYSPSFQGHVTISADKSTSTAYLQWNSLKASDTAMYYCARVQYSGYYDWFDPWGQGTLVTVSS
VL 1: not shown
VH 2: not shown
VL 2: QAVVTQEPSLTVSPGGTVTLTCGSSTGAVTTSNYANWVQEKPGQAFRGLIGGTNKRAPGTPARFSGSLLGGKAALTLSGAQPEDEAEYYCALWYSNLWVFGGGTKLTVL
On to B9, for which the 50% effective concentration (EC50 (read off the curve)) was approximately 0.3 µg/mL in assay [21] and approximately 1 µg/mL in assay [22].

B10: CD3 binder CH2527 (antibody, V domains shown)
VH: not shown
VL: B9 VL 2
With B10, the Kd with CD3 was in the range of 85 to 130 nM.
